C-jun Ser63 phosphorylation in hippocampal neurons (Western blot, site-specific anti-phospho c-jun antibody), reduction with respect to hNGF or hNGFP61S and proliferative index, proliferation of human TF1 cells expressing TrkA data for 3 substances are collected here from paper PMC3364340.

In experiment [1] the target is p75NTR, endogenous in rat primary hippocampal neurons (rat (endogenous in rat hippocampal neurons)) (UniProt P07174).
Experiment [2] concerns the target TrkA, on human TF1 erythroleukemia cells (human (endogenous in TF1)) (UniProt P04629).
Chain of UniProt P04629 (P04629 33-796): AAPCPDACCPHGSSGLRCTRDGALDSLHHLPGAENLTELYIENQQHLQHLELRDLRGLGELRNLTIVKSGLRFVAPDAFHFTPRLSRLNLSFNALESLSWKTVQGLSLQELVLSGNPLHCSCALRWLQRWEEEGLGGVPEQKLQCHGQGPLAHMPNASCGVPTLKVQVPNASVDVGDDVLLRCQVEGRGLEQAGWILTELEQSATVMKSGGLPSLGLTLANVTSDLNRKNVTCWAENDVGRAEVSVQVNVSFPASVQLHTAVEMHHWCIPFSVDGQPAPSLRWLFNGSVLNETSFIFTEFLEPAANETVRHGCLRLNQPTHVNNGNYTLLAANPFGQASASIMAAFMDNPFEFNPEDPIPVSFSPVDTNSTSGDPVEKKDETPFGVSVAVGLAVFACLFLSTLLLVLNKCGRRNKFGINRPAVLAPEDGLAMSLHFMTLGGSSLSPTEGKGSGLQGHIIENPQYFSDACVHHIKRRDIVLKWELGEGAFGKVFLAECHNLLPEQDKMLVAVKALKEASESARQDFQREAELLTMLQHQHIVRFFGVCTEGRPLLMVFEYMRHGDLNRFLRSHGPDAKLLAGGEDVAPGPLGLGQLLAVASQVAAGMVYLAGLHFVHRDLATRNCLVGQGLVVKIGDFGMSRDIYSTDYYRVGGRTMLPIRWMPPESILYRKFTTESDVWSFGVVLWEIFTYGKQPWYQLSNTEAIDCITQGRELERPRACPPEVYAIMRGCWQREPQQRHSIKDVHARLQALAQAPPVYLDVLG

Chain of UniProt P07174 (P07174 30-425): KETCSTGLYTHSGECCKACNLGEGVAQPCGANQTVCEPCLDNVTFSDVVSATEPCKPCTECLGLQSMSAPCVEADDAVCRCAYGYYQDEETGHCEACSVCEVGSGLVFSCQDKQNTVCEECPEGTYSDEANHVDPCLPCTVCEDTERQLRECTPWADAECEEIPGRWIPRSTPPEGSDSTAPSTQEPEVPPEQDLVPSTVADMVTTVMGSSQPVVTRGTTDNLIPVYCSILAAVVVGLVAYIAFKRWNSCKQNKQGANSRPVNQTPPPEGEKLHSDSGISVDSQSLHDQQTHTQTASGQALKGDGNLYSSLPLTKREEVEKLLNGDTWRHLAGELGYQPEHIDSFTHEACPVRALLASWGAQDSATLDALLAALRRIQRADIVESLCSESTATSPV

As to “hNGFR100E, human NGF mutant R100E (from UniProt P01138 122-241) (ligand)”, in experiment [1], the c-jun Ser63 phosphorylation in hippocampal neurons (Western blot, site-specific anti-phospho c-jun antibody), reduction with respect to hNGF or hNGFP61S was 30%. Also, the proliferative index, proliferation of human TF1 cells expressing TrkA in experiment [2] is 1.28 ng/mL.

Take “hNGFP61S/R100E, double mutant of human NGF ("painless" hNGF) (ligand)”: the c-jun Ser63 phosphorylation in hippocampal neurons (Western blot, site-specific anti-phospho c-jun antibody), reduction with respect to hNGF or hNGFP61S in experiment [1] is 30%. Besides, in experiment [2], the proliferative index, proliferation of human TF1 cells expressing TrkA amounted to 1.89 ng/mL.

For “hNGFP61S, human NGF tagged with the single-residue epitope P61S (ligand)”, the proliferative index, proliferation of human TF1 cells expressing TrkA in experiment [2] came to 1.68 ng/mL.
